Numbering of substitutions follows the chain as printed. Names and notes keep the numbering of the source.
Target: T1, EsCas13d, nuclease-dead (Eubacterium siraeum, UniProt B0MS50, R295A;H300A;R849A;H854A)
T1 sequence: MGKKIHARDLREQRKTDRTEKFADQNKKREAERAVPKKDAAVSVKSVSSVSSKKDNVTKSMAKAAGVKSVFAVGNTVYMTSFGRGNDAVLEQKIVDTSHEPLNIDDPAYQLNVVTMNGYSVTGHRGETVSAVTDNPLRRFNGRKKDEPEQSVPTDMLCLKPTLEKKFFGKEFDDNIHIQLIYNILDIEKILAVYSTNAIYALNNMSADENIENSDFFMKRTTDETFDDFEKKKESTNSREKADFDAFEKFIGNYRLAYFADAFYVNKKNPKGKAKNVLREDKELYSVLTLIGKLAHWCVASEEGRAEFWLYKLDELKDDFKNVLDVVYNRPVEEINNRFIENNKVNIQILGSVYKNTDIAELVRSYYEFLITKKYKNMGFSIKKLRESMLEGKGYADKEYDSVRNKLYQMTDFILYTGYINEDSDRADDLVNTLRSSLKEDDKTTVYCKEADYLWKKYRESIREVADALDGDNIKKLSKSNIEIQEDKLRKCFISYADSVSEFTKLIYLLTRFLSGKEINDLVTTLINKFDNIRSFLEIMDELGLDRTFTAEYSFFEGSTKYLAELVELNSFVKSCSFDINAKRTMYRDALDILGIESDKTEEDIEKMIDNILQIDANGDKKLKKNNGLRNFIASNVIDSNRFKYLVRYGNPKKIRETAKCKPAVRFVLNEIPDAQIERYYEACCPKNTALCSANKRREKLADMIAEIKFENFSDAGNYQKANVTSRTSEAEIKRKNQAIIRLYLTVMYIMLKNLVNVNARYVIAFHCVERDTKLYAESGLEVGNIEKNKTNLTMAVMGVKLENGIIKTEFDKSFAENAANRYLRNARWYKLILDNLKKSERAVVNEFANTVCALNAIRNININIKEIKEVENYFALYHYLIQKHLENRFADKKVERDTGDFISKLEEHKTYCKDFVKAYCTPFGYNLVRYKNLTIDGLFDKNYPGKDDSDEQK
Assay: crRNA (strand 1, pre-loaded); Mg2+; 40 mM Tris-HCl pH 7.5, 150 mM NaCl, 6 mM MgCl2, 1 mM DTT, 0.1% Tween-20, 0.2 mg/ml BSA; 25 C; 10 min per concentration, then washed
Details: tags: His6-TwinStrep-SUMO cleaved; N-terminal SNAP kept (SNAP-Surface 488); label: 3' end held by stalled T7 RNA polymerase

B1: target 1 MT 5'PFS CCG 3'PFS ACU (mixed)
RNA 1: CACCCGUGCAAAAAUGCAGGGGUCUAAAACUGAGCGGAUAACCUCUCUAUGG
RNA 2: GGGAAUGGAUCCACAUCUACGAAUUCCCGCCAUAGAGAGGUUAUCCGCUCAACUAGAUCGGAAGAGCACACGU
  Kd: ~4.9 nM

B2: target 1 MT 5'PFS CAA 3'PFS UAG (mixed)
RNA 1: B1 RNA 1
RNA 2: B1 RNA 2 with C28A, G29A, A52U, C53A, U54G
  Kd: 17 ± 6.5 nM

B3: target 1 MT 5'PFS GGC 3'PFS AGA (mixed)
RNA 1: B1 RNA 1
RNA 2: B1 RNA 2 with C27G, C28G, G29C, C53G, U54A
  Kd: 22.5 ± 5 nM

B4: target 1 MT 5'PFS UGG 3'PFS ACG (mixed)
RNA 1: B1 RNA 1
RNA 2: B1 RNA 2 with C27U, C28G, U54G
  Kd: 54 ± 17.5 nM

B5: target 1 MT 5'PFS GAA 3'PFS CGA (mixed)
RNA 1: B1 RNA 1
RNA 2: B1 RNA 2 with C27G, C28A, G29A, A52C, C53G, U54A
  Kd: ~85 nM

B6: target 1 MT 5'PFS CAA 3'PFS UAA (mixed)
RNA 1: B1 RNA 1
RNA 2: B1 RNA 2 with C28A, G29A, A52U, C53A, U54A
  Kd: 18 ± 9 nM

B7: target 1 MT 5'PFS AGU 3'PFS CCG (mixed)
RNA 1: B1 RNA 1
RNA 2: B1 RNA 2 with C27A, C28G, G29U, A52C, U54G
  Kd: 24.6 ± 7.6 nM

B8: target 1 U10G,A16U (mixed)
RNA 1: B1 RNA 1
RNA 2: B1 RNA 2 with C27G, C28U, G29A, A36U, U42G, A52C, U54G
  Kd: 58 ± 10 nM

B9: target 1 MT 5'PFS GUG 3'PFS ACU (mixed)
RNA 1: B1 RNA 1
RNA 2: B1 RNA 2 with C27G, C28U
  Kd: 11.5 ± 0.75 nM

B10: target 1 MT 5'PFS GCA 3'PFS ACG (mixed)
RNA 1: B1 RNA 1
RNA 2: B1 RNA 2 with C27G, G29A, U54G
  Kd: 19 ± 5.5 nM

B11: target 1 MT 5'PFS CAA 3'PFS UAC (mixed)
RNA 1: B1 RNA 1
RNA 2: B1 RNA 2 with C28A, G29A, A52U, C53A, U54C
  Kd: 7.65 ± 2.65 nM

B12: target 1 MT 5'PFS UUU 3'PFS AGC (mixed)
RNA 1: B1 RNA 1
RNA 2: B1 RNA 2 with C27U, C28U, G29U, C53G, U54C
  Kd: 68 ± 27.5 nM

B13: target 1 MT 5'PFS GUG 3'PFS ACG (mixed)
RNA 1: B1 RNA 1
RNA 2: B1 RNA 2 with C27G, C28U, U54G
  Kd: 15.4 ± 1 nM

B14: target 1 MT 5'PFS UGG 3'PFS ACU (mixed)
RNA 1: B1 RNA 1
RNA 2: B1 RNA 2 with C27U, C28G
  Kd: ~120 nM

B15: target 1 MT 5'PFS GGC 3'PFS CGA (mixed)
RNA 1: B1 RNA 1
RNA 2: B1 RNA 2 with C27G, C28G, G29C, A52C, C53G, U54A
  Kd: 22 ± 7 nM

B16: target 1 MT 5'PFS GUA 3'PFS GAA (mixed)
RNA 1: B1 RNA 1
RNA 2: B1 RNA 2 with C27G, C28U, G29A, A52G, C53A, U54A
  Kd: 11.8 ± 1.3 nM

B17: target 1 MT 5'PFS CAG 3'PFS AAG (mixed)
RNA 1: B1 RNA 1
RNA 2: B1 RNA 2 with C28A, C53A, U54G
  Kd: 28.5 ± 8 nM

B18: target 1 MT 5'PFS GCA 3'PFS CCG (mixed)
RNA 1: B1 RNA 1
RNA 2: B1 RNA 2 with C27G, G29A, A52C, U54G
  Kd: 18.5 ± 8 nM

B19: target 1 MT 5'PFS UAG 3'PFS AUA (mixed)
RNA 1: B1 RNA 1
RNA 2: B1 RNA 2 with C27U, C28A, C53U, U54A
  Kd: 31.3 ± 4.95 nM

B20: target 1 MT 5'PFS UAG 3'PFS AUC (mixed)
RNA 1: B1 RNA 1
RNA 2: B1 RNA 2 with C27U, C28A, C53U, U54C
  Kd: 32 ± 9 nM

B21: target 1 MT 5'PFS UAG 3'PFS AUU (mixed)
RNA 1: B1 RNA 1
RNA 2: B1 RNA 2 with C27U, C28A, C53U
  Kd: 31.6 ± 4.7 nM

B22: target 1 MT 5'PFS GCU 3'PFS CUG (mixed)
RNA 1: B1 RNA 1
RNA 2: B1 RNA 2 with C27G, G29U, A52C, C53U, U54G
  Kd: 92 ± 34 nM

B23: target 1 MT 5'PFS GCA 3'PFS ACU (mixed)
RNA 1: B1 RNA 1
RNA 2: B1 RNA 2 with C27G, G29A
  Kd: 18.5 ± 4.5 nM

B24: target 1 MT 5'PFS UAG 3'PFS AUG (mixed)
RNA 1: B1 RNA 1
RNA 2: B1 RNA 2 with C27U, C28A, C53U, U54G
  Kd: 46.5 ± 9 nM

B25: target 1 MT 5'PFS GCU 3'PFS CUA (mixed)
RNA 1: B1 RNA 1
RNA 2: B1 RNA 2 with C27G, G29U, A52C, C53U, U54A
  Kd: 53 ± 22 nM

B26: target 1 MT 5'PFS UUU 3'PFS CGU (mixed)
RNA 1: B1 RNA 1
RNA 2: B1 RNA 2 with C27U, C28U, G29U, A52C, C53G
  Kd: ~65 nM

B27: target 1 MT 5'PFS AGC 3'PFS AUA (mixed)
RNA 1: B1 RNA 1
RNA 2: B1 RNA 2 with C27A, C28G, G29C, C53U, U54A
  Kd: 56.5 ± 18.5 nM

B28: target 1 MT 5'PFS GGG 3'PFS UGU (mixed)
RNA 1: B1 RNA 1
RNA 2: B1 RNA 2 with C27G, C28G, A52U, C53G
  Kd: 43 ± 7.5 nM

B29: target 1 MT 5'PFS GCU 3'PFS CUC (mixed)
RNA 1: B1 RNA 1
RNA 2: B1 RNA 2 with C27G, G29U, A52C, C53U, U54C
  Kd: 44 ± 14 nM

B30: target 1 MT 5'PFS GUA 3'PFS GAU (mixed)
RNA 1: B1 RNA 1
RNA 2: B1 RNA 2 with C27G, C28U, G29A, A52G, C53A
  Kd: 12.5 ± 1.35 nM

B31: target 1 MT 5'PFS GGC 3'PFS CGC (mixed)
RNA 1: B1 RNA 1
RNA 2: B1 RNA 2 with C27G, C28G, G29C, A52C, C53G, U54C
  Kd: 15.5 ± 4 nM

B32: target 1 MT 5'PFS GUA 3'PFS GAG (mixed)
RNA 1: B1 RNA 1
RNA 2: B1 RNA 2 with C27G, C28U, G29A, A52G, C53A, U54G
  Kd: 16.1 ± 2.3 nM

B33: target 1 MT 5'PFS GGU 3'PFS UUC (mixed)
RNA 1: B1 RNA 1
RNA 2: B1 RNA 2 with C27G, C28G, G29U, A52U, C53U, U54C
  Kd: 36 ± 6 nM

B34: target 1 insC 3' of 11,insG 3' of 9 (mixed)
RNA 1: B1 RNA 1
RNA 2: GGGAAUGGAUCCACAUCUACGAAUUCGUACCAUAGAGAGGUCUAGUCCGCUCACCGAGAUCGGAAGAGCACACGU
  Kd: 31.8 ± 2 nM

B35: target 1 MT 5'PFS CAA 3'PFS UAU (mixed)
RNA 1: B1 RNA 1
RNA 2: B1 RNA 2 with C28A, G29A, A52U, C53A
  Kd: 34.5 ± 15 nM

B36: target 1 MT 5'PFS GUA 3'PFS GAC (mixed)
RNA 1: B1 RNA 1
RNA 2: B1 RNA 2 with C27G, C28U, G29A, A52G, C53A, U54C
  Kd: 14.3 ± 3.05 nM

B37: target 1 MT 5'PFS GCU 3'PFS CUU (mixed)
RNA 1: B1 RNA 1
RNA 2: B1 RNA 2 with C27G, G29U, A52C, C53U
  Kd: 26 ± 8 nM

B38: target 1 MT 5'PFS GUG 3'PFS ACC (mixed)
RNA 1: B1 RNA 1
RNA 2: B1 RNA 2 with C27G, C28U, U54C
  Kd: 12.4 ± 1.1 nM

B39: target 1 insC 3' of 20,insC 3' of 20 (mixed)
RNA 1: B1 RNA 1
RNA 2: B34 RNA 2 with U33C, A34C, G35U, G40A, U41G, C42G, A44U, G45A
  Kd: 44.7 ± 3.1 nM

B40: target 1 MT 5'PFS GUG 3'PFS ACA (mixed)
RNA 1: B1 RNA 1
RNA 2: B1 RNA 2 with C27G, C28U, U54A
  Kd: 24.1 ± 2.35 nM

Reference: publication PMC10786891, “Massively parallel profiling of RNA-targeting CRISPR-Cas13d”
